# Publication PMC3699834
# Substrate: N
# Experiment: cells, lysate or membranes
# Details: NH4Cl; oocytes clamped at −120 mV; Michaelis–Menten fit
protein,measurement,value
AMT1;3 (Arabidopsis thaliana) (protein) MSGAITCSAADLATLLGPNATAAADYICGQLGTVNNKFTDAAFAIDNTYLLFSAYLVFAMQLGFAMLCAGSVRAKNTMNIMLTNVLDAAAGGLFYYLFGYAFAFGGSSEGFIGRHNFALRDFPTPTADYSFFLYQWAFAIAAAGITSGSIAERTQFVAYLIYSSFLTGFVYPVVSHWFWSPDGWASPFRSADDRLFSTGAIDFAGSGVVHMVGGIAGLWGALIEGPRRGRFEKGGRAIALRGHSASLVVLGTFLLWFGWYGFNPGSFTKILVPYNSGSNYGQWSGIGRTAVNTTLSGCTAALTTLFGKRLLSGHWNVTDVCNGLLGGFAAITAGCSVVEPWAAIVCGFMASVVLIGCNKLAELVQYDDPLEAAQLHGGCGAWGLIFVGLFAKEKYLNEVYGATPGRPYGLFMGGGGKLLGAQLVQILVIVGWVSATMGTLFFILKRLNLLRISEQHEMQGMDMTRHGGFAYIYHDNDDESHRVDPGSPFPRSATPPRV,Km,55 ± 15 µM
